± gives the uncertainty stated by the source.
Assay: protein stability index of a GFP-peptide fusion (yeast GPS) (PSI 1-4); higher = more stable; sorted into four equal gates, so the index is relative within each strain
Summary of the method: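 For each peptide, the protein stability index sums the read frequency in every gate after multiplying it by the gate number. Read frequencies came from plasmids that were PCR-amplified from each gate and Illumina-sequenced, with reads assigned to strains by barcodes. The gates were four equal bins of GFP/Cherry fluorescence ratio applied to mid-log yeast in leucine-free medium carrying a pooled library of tiled 17-residue yeast protein peptides fused downstream of GFP on a Cherry-expressing plasmid.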

Sequence	protein stability index (doa10∆)	protein stability index (pdr5∆)	protein stability index (san1∆)	protein stability index (ubr1∆)
SEYKVAFPHLYNSRPRS [PRP8]	2.91 ± 0.071	2.66 ± 0.072	2.85 ± 0.086	2.77 ± 0.06
KTLTGKTITLEVESSDT [RPS31]	2.62 ± 0.048	2.73 ± 0.04	2.43 ± 0.065	1.97 ± 0.034
QPKRNLSRYVKWPEYVR [RPL8A]	2.87 ± 0.096	2.98 ± 0.046	3.06 ± 0.06	2.99 ± 0.066
HIEKLENEFVVLLDARD [CDC53]	3.35 ± 0.088	3.05 ± 0.081	2.9 ± 0.14	3.27 ± 0.091
QAQAQAQANNNNNGLPQ [GAL11]	3.04 ± 0.037	3.1 ± 0.035	2.952 ± 0.029	3.05 ± 0.033
AVAVGNVEMEEDVLVNQ [RPL1A]	2.19 ± 0.091	2.17 ± 0.075	1.17 ± 0.11	2 ± 0.059
MASYMLNSFAFELCSLG [YJR042W/NUP85]	1.29 ± 0.17	1.51 ± 0.16	–	1.5 ± 0.23
DFYVVMNRPGARVTRRK [RPL11A]	3.22 ± 0.17	2.86 ± 0.15	3.28 ± 0.061	3.32 ± 0.11
DDVVVLTGEAEIEQPVT [FAS1]	3.47 ± 0.12	3.27 ± 0.12	2.85 ± 0.13	2.98 ± 0.099
LAKILARSIDVEKGVNP [ECM29]	1.21 ± 0.09	1.21 ± 0.062	1.4 ± 0.17	1.07 ± 0.071
WRFHTPQKYVLHPQLHE [SIN4]	2.17 ± 0.071	2.11 ± 0.069	1.78 ± 0.13	1.97 ± 0.057
LRSTENGIVDQVLVTTN [RPB2]	2.39 ± 0.095	2.03 ± 0.11	2.46 ± 0.099	1.82 ± 0.055
DNEVQRTMLELITQLDG [RPT1]	2.55 ± 0.12	3.21 ± 0.12	2.79 ± 0.14	2.67 ± 0.15
KKEEELGVKSRLLEKSE [SNF2]	–	3.01 ± 0.14	3.06 ± 0.2	3.04 ± 0.29
ENNSDSNSNNNGNKDSS [SWI1]	2.95 ± 0.089	3.12 ± 0.076	3.05 ± 0.06	3.04 ± 0.068
LDCDGGFIDASCIAVMA [RRP45]	1.87 ± 0.047	1.56 ± 0.049	2.67 ± 0.071	1.56 ± 0.04
MIDLGFEDQVTNILTKV [PRP28]	–	3.67 ± 0.25	2.88 ± 0.22	3.16 ± 0.19
PESIRQKKARTILQHLS [PRP8]	1.21 ± 0.099	1.53 ± 0.093	1.12 ± 0.21	1.21 ± 0.24
VPDSKIRIYDLGKKKAT [RPL10]	1.24 ± 0.076	1.35 ± 0.071	1.15 ± 0.13	1.05 ± 0.056

Reference: the supplement of paper PMC9732359
